The text below walks through data of patent US20260125477A1 (BEIJING MABWORKS BIOTECH, published 2026).

Experiment [1] addresses T1, human B7-2/CD86 protein, with His tag (human, UniProt P42081 26-247, limits assumed).
T1 construct: Bought protein
T1 sequence (looked up): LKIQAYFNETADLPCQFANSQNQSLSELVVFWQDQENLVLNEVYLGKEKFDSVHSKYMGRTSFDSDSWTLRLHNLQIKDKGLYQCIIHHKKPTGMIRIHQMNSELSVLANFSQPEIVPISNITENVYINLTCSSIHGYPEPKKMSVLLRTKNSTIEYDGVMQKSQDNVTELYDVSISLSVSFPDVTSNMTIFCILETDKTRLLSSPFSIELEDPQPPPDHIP
Kind of experiment: SPR (Biacore T200), antibody captured on Protein A chip, response at 200 nM antigen. How it is done:
(§1) The anti-human B7-H3 antibodies were tested for their binding capability to B7 family proteins by SPR using Biacore T200 biosensor (Biacore, US) provided with a pre-fixed Protein A sensor chip.
(§2) The dissociation was monitored for 600 sec. The data was analyzed using Biacore 8k evaluation software version 3.0, to obtain the binding responses, and the protein concentration-binding response curves were plotted, to determine the cross-reaction of the anti-human B7-H3 antibodies to the B7 family proteins.
(SPR reads the build-up and loss of mass on a sensor chip optically.)

In experiment [2] the target is T2, human B7-H2/ICOSLG protein, with His tag (human, UniProt O75144 19-258, limits assumed).
T2 construct: Bought protein
T2 sequence (looked up): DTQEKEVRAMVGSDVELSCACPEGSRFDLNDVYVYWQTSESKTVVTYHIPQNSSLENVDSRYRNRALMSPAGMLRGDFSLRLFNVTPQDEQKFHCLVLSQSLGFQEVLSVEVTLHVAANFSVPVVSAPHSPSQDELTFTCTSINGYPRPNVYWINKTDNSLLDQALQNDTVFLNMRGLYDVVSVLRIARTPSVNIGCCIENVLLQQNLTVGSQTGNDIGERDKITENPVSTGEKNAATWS
The description is as above. As for the experimental part: as §1, §2

Experiment [3] addresses T3, human B7-H4 protein, with His tag (MALS verified) (human, UniProt Q7Z7D3 29-258, limits assumed).
T3 construct: Bought protein
T3 sequence (looked up): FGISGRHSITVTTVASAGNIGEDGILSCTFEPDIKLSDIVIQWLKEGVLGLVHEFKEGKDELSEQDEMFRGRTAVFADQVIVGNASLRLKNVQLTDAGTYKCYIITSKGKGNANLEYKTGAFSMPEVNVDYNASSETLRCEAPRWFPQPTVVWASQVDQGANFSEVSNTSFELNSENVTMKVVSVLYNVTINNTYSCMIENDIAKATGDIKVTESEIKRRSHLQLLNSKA
Described as above. As for the experimental part:
as §1, §2

Experiment [4] deals with T4, human B7-H6/NCR3LG1 protein, with His tag (human, UniProt Q68D85 25-262, limits assumed).
T4 construct: Bought protein
T4 sequence (looked up): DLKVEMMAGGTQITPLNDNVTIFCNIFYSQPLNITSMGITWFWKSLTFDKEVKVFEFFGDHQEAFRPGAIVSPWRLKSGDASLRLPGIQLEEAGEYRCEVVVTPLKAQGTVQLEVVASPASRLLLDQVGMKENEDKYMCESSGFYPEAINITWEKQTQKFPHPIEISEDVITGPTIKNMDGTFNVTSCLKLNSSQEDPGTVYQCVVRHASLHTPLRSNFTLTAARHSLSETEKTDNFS
The description is as above. As for the experimental part: as §1, §2

The target of experiment [5] is T5, human B7-H7/HHLA2 protein, with His tag (MALS verified) (human, UniProt Q9UM44 23-344, limits assumed).
T5 construct: Bought protein
T5 sequence (looked up): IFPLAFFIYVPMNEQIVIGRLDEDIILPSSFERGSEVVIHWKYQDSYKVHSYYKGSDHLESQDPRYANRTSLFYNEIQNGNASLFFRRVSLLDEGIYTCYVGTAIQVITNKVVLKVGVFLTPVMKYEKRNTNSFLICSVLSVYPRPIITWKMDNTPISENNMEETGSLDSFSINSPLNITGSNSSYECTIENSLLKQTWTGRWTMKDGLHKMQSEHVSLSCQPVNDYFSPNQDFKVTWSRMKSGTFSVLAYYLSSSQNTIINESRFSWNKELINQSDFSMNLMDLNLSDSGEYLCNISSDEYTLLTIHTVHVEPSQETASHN
The experiment is described as above. As for the experimental part: as §1, §2

In experiment [6] the target is T6, recombinant human CD80 protein (human B7-1/CD80 protein, with His tag) (human, UniProt P33681 35-242).
T6 construct: Bought protein
T6 sequence (looked up): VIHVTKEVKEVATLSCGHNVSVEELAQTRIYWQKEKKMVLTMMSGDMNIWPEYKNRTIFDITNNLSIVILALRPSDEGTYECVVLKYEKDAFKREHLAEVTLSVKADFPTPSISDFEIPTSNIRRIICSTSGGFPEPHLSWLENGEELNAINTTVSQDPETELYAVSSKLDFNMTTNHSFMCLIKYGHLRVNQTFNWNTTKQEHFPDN
Nature of the experiment: SPR (Biacore T200), antibody captured on Protein A chip. How it is done:
as §1, §2

The target in experiment [7] is T5, human B7-H7/HHLA2 protein, with His tag …. The description is as above. How it is done:
as §1, §2

Experiment [8] concerns the target T7, mouse B7-H3/CD276 protein, with His tag (mouse, UniProt Q8VE98 29-244, limits assumed).
T7 construct: Bought protein
T7 sequence (looked up): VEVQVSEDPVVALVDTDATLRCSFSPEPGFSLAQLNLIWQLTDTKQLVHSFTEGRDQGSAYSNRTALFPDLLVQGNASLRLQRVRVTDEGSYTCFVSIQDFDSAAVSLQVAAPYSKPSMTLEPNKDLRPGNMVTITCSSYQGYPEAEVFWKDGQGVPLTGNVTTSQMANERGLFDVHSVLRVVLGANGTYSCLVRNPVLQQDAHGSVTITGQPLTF
The experiment is described as above. As for the experimental part:
The fully human anti-human B7-H3 antibodies were tested for their binding affinity to human B7-H3 (4Ig), human B7-H3 (2Ig), monkey B7-H3 (monkey B7-H3/CD276 protein, with His tag, Cat #: B73-C52Ha, ACROBiosystems) and mouse B7-H3 protein (mouse B7-H3/CD276 protein, with His tag, Cat #: B73-M52H4, ACROBiosystems) by surface plasmon resonance (SPR) using Biacore T200 biosensor (Biacore, US) provided with a pre-fixed Protein A sensor chip. Briefly, the anti-human B7-H3 antibodies (1 μg/mL) were injected to the Biacore T200 biosensor at 10 μL/min for 20 sec, to achieve the desired protein density (100±30 RU).
The data as generated was analyzed using Biacore Insight V2.0.1 5.12933 with the one-to-one Langmuir binding model. The association rate (kₒₙ) and dissociation rate (koff) were obtained at the same time. The affinity was calculated as the quotient of the two kinetic rate constants (KD=koff/kₒₙ).

B1: 6B5 (antibody, human IgG1, kappa, V domains shown)
VH: QVQLVESGPGLVKPSQTLSLTCTVSDGSISSGGYYWSWIRQHPGKGLEWIGYIYYSGGTYYSPSLKSRVTISVDTSKNQFSLKLTSVTAADTAVYYCARRAGYSSSFDSWGQGILVTVSS
VL: EIVLTQSPLSLPVTPGEPASISCRSSQSLLYSNGYTYLDWYLQKPGQSPQFLIYLGFNRASGVPDRFSGSGSGTDFTLKISRVEAEDVGVYYCMQGLQTPYTFGQGTKLEIKR
notes: also called 6B5-WT; Ab6B5
In the case of B1, the “Response (RU)” value is 0.3 RU in experiment [1]; 0.9 RU in experiment [2]; 0.5 RU in experiment [3]; -0.2 RU in experiment [4]; 1.3 RU in experiment [5].

B2: 10F5 (antibody, human IgG1, kappa, V domains shown)
VH: QVQLVQSGAEVKKPGSSVKVSCKASGGTFSSQAISWVRQAPGQGLEWMGRIIPMLGIGDYAQSFQGRVTITADKSTSTAYLEVSSLGSEDTAVYYCAREGIAALGTNYYYGMDVWGQGTAVTVSS
VL: EIVMTQSPSSVSASVGDRVTITCRASQGISRWLAWYQQKPGKAPKLLIYVASSLQSGVPSRFSGSGSGTDFTLTISSLQPEDFATYYCQQANSFPFTFGPGTKVDIRR
notes: also called Ab10F5
As to B2, the binding result in experiment [6] and in experiment [7] was “no binding (tested: 200 nM)” throughout. Moreover, the “Response (RU)” value in experiment [1] was 0.5 RU; in experiment [2] it was 0.9 RU; in experiment [3], 0.3 RU; in experiment [4], -0.4 RU; in experiment [5], 1.7 RU.

B3: 10D7 (antibody, human IgG1, kappa, V domains shown)
VH: QVQLVQSGPGLVKPSETLSLTCTVSGGSISRSSYYWGWIRQPPGKGLEWIGNIFYAGSTYYNPSLKSRVTISVDTSKNQFSLKLSSVTAADTAVYYCARRITGTTGWFDPWGQGTLVTVSS
VL: DIQLTQSPSSLSASVGDRVTITCRASQGIRNDLGWYQQKPGKAPKLLIYAASTLQSGVPSRFSGSGSGTDFTLTISSLQPEDFATYYCLQDYNYPRTFGQGTKVEIKR
notes: also called 10D7-WT; Ab10D7
In the case of B3, the binding result in experiment [6] is on record as “no binding (tested: 200 nM)”; in experiment [7] it was “no binding (tested: 200 nM)”; in experiment [8] it was “no binding (tested: 200 nM highest antigen concentration)”. Also, the “Response (RU)” value in experiment [1] is -0.2 RU; in experiment [2], -0.1 RU; in experiment [3], 0.3 RU; in experiment [4], -0.5 RU; in experiment [5], 0.2 RU.

B4: Enoblituzumab (antibody, human IgG1, kappa, V domains shown)
VH: EVQLVESGGGLVQPGGSLRLSCAASGFTFSSFGMHWVRQAPGKGLEWVAYISSDSSAIYYADTVKGRFTISRDNAKNSLYLQMNSLRDEDTAVYYCGRGRENIYYGSRLDYWGQGTTVTVSS
VL: DIQLTQSPSFLSASVGDRVTITCKASQNVDTNVAWYQQKPGKAPKALIYSASYRYSGVPSRFSGSGSGTDFTLTISSLQPEDFATYYCQQYNNYPFTFGQGTKLEIKR
notes: Humanized anti-B7-H3 antibody of MacroGenics with optimised Fc, used as the positive control; also called AbEno; enoblituzumab-IgG1-Mut
Consider B4, for which the binding result in experiment [8] was “no binding (tested: 200 nM highest antigen concentration)”. The “Response (RU)” value in experiment [1] is -1.5 RU; in experiment [2] it was -2 RU; in experiment [3], -2 RU; in experiment [4] it was -2.2 RU; in experiment [5], -1.3 RU.
